In patent US20180362652A1 (Biogen, published 2018):
Values joined by “and” are separate entries in the source; they are usually repeats but may differ in a detail not shown here. Equal values may be shown once.

Legend:
[1] = target: T1, human BDCA2 (full-length, cell surface) (human, UniProt Q8WTT0 1-213); assay: cell-based or functional assay
T1 sequence: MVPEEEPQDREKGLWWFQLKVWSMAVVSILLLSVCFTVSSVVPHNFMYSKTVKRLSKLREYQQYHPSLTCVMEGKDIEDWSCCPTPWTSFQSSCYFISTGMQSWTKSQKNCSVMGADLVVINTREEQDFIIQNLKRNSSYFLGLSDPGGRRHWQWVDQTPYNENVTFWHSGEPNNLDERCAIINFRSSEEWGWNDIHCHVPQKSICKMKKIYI

[2] = target: T2, cynomolgus monkey BDCA2 (full-length, cell surface, E73 SNP form) (cynomolgus monkey, UniProt Q8WTT0 1-213 (human entry)); assay: cell-based or functional assay
T2 chain: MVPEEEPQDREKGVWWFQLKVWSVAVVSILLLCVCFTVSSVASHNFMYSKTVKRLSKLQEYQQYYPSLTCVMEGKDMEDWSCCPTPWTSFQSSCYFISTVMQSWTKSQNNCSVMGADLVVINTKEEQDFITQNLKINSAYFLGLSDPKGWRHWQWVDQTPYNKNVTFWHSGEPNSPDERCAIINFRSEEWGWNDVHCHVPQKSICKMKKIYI

[3] = target: T1, human BDCA2 (full-length, cell surface); assay: flow cytometry, whole blood, Alexa647-labeled BIIB059 on pDCs
Procedure: (§1) Cynomolgus monkey (Toxikon, Inc, Bedford, Mass.) or human peripheral blood (Biogen Idec) were collected in sodium heparin collection tubes and maintained at room temperature. A FACS staining antibody cocktail for identifying pDCs was added to each whole blood aliquot, incorporating CD20, CD14, CD123 and HLA-DR antibodies. […] Blood was incubated on ice, protected from light, for 30 min. […] After a 10-15 min. incubation at room temperature, samples were centrifuged at 1400 rpm for 5 min. The supernatant was decanted, leaving only a pellet of white blood cells (WBC). Each WBC pellet was washed with 5 mL of FACS buffer (1% BSA+0.002% NaAzide+1 mM CaCl₂+1 mM MgCl₂ in PBS), and centrifuged at 1400 rpm for 5 min. The supernatant was decanted, and each WBC pellet was resuspended in 200 μL of FACS buffer and transferred to a 96-well round bottom plate (Fisher Scientific). The plate was centrifuged at 1400 rpm for 5 min. The supernatant was dumped out of the plate, and each WBC pellet was washed with 200 μL of FACS buffer. The plate was centrifuged at 1400 rpm for 5 min, and the supernatant dumped out of the plate. Following washing (as above), WBCs were resuspended in 200 μL of 1% paraformaldehyde (PFA) in PBS, and fixed at 4° C. overnight, protected from light. […] Each WBC pellet was resuspended in 250 μL of FACS buffer and fluorescence intensity measured on a LSRII 4-color FACS machine. […]

[4] = target: T2, cynomolgus monkey BDCA2 (full-length, …); assay: as above
Procedure: as §1

[5] = target: T1, human BDCA2 (full-length, cell surface); assay: flow cytometry, Alexa647-labelled BIIB059 on pDCs in human whole blood, on ice
Procedure: as §1

[6] = target: T2, cynomolgus monkey BDCA2 (full-length, …); assay: flow cytometry, whole blood pDCs of cynomolgus monkey donor 8, anti-human IgG PE secondary
Procedure: The MFI of PE was calculated in FlowJo software, and the percent of maximal binding, using the 40 μg/mL point as 100%, was computed. Each line represents one individual cynomolgus monkey, for a total of twelve cynomolgus monkeys, and graphed using GraphPad Prism software (four-parameter nonlinear regression curve fit of log-transformed data). Staining was repeated once a week for three weeks total.
The maximal values were taken from the values at the plateau in each assay (FIGS. 24 and 25).
MFI of PE was calculated with FlowJo software, and EC50 curves were generated in GraphPad Prism software.

[7] = target: T2, cynomolgus monkey BDCA2 (full-length, …); assay: flow cytometry, Alexa647-labelled BIIB059 on pDCs in cynomolgus monkey whole blood, on ice
Procedure: as §1

[8] = target: the molecule itself; assay: AlphaScreen self-association assay: glutathione donor and acceptor beads carrying human FcRIIa (CD32a) GST; a signal needs antibody on both beads to associate with itself
Procedure: The AlphaScreen assay is a homogeneous proximity assay utilizing glutathione donor and acceptor beads (Perkin Elmer) to bind human FcRIIa (CD32a) GST. Various concentrations of the antibodies to be tested were added in this mixture. […] The level of emission detected by the Envision (Perkin Elmer) instrument is proportional to the degree of self-association.

[9] = target: T2, cynomolgus monkey BDCA2 (full-length, …); assay: indirect method: flow cytometry of pDCs in cynomolgus whole blood, unlabelled BIIB059 titrated, free BDCA2 detected with the competitor BIIB059-A647 at 10 ug/mL [panel Cynomolgus monkey 6]
Procedure: (§2) The MFI of PE (open symbols, graphed on the left y-axis) or A647 (closed symbols, graphed on the right y-axis) was calculated in FlowJo software, and graphed using GraphPad Prism software (four-parameter nonlinear regression curve fit of log-transformed data).

[10] = target: T2, cynomolgus monkey BDCA2 (full-length, …); assay: indirect method: flow cytometry of pDCs in cynomolgus whole blood, unlabelled BIIB059 titrated, free BDCA2 detected with the competitor BIIB059-A647 at 10 ug/mL [panel Cynomolgus monkey 7]
Procedure: as §2

B1: BIIB059 (antibody, human IgG1, kappa)
heavy: not shown
light: DIQLTQSPSSLSASVGDRVTITCKASQSVDYDGDSYMNWYQQKPGKAPKLLIYAASTLESGVPSRFSGSGSGTDFTLTISSLQPEDFATYYCQQANEDPRTFGQGTKVEIKRTVAAPSVFIFPPSDEQLKSGTASVVCLLNNFYPREAKVQWKVDNALQSGNSQESVTEQDSKDSTYSLSSTLTLSKADYEKHKVYACEVTHQGLSSPVTKSFNRGEC
notes: Humanized IgG1 kappa, mature chains; in some assays labelled with Alexa647; also called hu24F4 H4/L1 C95A; H4-L1-C95A (YL751/YL746)
- EC50 of BIIB059-mediated BDCA2 internalization (whole blood, 10 donors) [1]: 0.02 µg/mL
- IC50 for inhibition of TLR9-induced IFNα production by PBMC [1]: 0.001 µg/mL
- IC50 for inhibition of TLR9-induced IFNα production by PBMC from healthy donors [1]: 0.04 µg/mL
- IC50 for inhibition of immune complex-induced IFNα by pDCs [1]: 0.04 µg/mL
- IC50 of BIIB059 mediated inhibition of TLR9 induced IFNα (whole blood, 10 donors) [1]: 0.07 µg/mL
- EC50 of BDCA2 internalization on pDCs (cynomolgus monkey 3, IV 10 mg/kg) [2]: 0.15 µg/mL
- EC50 of BDCA2 internalization on pDCs (cynomolgus monkey 4, SC 0.2 mg/kg) [2]: 0.088 µg/mL
- EC50 of BDCA2 internalization on pDCs (cynomolgus monkey 5, IV 1 mg/kg) [2]: 0.087 µg/mL
- EC50 of BDCA2 internalization on pDCs (cynomolgus monkey 6, IV 1 mg/kg) [2]: 0.025 µg/mL
- EC50 of BDCA2 internalization on pDCs (cynomolgus monkey 6, SC 0.2 mg/kg) [2]: 0.046 µg/mL
- EC50 of BDCA2 internalization on pDCs (cynomolgus monkey 7, IV 1 mg/kg) [2]: 0.09 µg/mL
- EC50 of BDCA2 internalization on pDCs (cynomolgus monkey 8, IV 10 mg/kg) [2]: 0.37 µg/mL
- EC50 of BDCA2 internalization on pDCs (cynomolgus monkey 10, IV 10 mg/kg) [2]: 0.126 µg/mL
- EC50 of BDCA2 internalization on pDCs (cynomolgus monkey 12, SC 0.2 mg/kg) [2]: 0.121 µg/mL
- EC50 of BDCA2 internalization on pDCs (mean of the cynomolgus monkeys) [2]: 0.123 µg/mL
- EC50 [3]: 1 µg/mL to 2 µg/mL (2×) and 7 nM to 13 nM
- EC50 [4]: 2 µg/mL and 7 nM to 13 nM
- EC50 [5]: 1.44 µg/mL
- EC50 [6]: 1.2 µg/mL
- EC50 [7]: 0.944 µg/mL
- binding result [8]: no binding (tested: 250 µg/ml)
- IC50 (read off the curve) [9]: ~1 µg/mL
- IC50 (read off the curve) [10]: ~2 µg/mL
